In patent US20160185859A1 (Pfizer, published 2016):
Positions count from the first letter of the chain named. Names may count otherwise. Where two headings read alike, the source gives them in different places. Blank lines part the entries; values can stand above or below the molecule they belong to.

Experiments:
[1] = biological target: human 5T4 antigen expressed on cells (PC14PE6 cells; MDAMB435/5T4 cells) (human) (UniProt Q13641); experiment: FACS of PC14PE6 cells; control
[2] = biological target: T1, human 5T4 antigen expressed on cells (PC14PE6 cells; MDAMB435/5T4 cells) (human, UniProt Q13641 32-420); experiment: FACS of PC14PE6 cells
T1 construct: PC14PE6 are human non-small cell lung cancer cells; also called 5T4-expressing PC14PE6 cells
T1 sequence: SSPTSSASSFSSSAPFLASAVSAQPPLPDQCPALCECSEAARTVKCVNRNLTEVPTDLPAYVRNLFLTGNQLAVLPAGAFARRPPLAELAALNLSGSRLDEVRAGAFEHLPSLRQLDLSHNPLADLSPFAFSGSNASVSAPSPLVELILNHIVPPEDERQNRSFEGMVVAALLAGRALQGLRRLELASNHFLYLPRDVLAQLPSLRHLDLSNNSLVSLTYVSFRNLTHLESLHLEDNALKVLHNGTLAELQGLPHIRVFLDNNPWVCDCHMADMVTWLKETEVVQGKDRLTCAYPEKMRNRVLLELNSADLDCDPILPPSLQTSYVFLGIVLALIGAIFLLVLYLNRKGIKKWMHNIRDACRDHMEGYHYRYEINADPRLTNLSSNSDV

human 5T4 antigen [3] = biological target: T2, human 5T4 antigen (human, UniProt Q13641 32-355, limits assumed); experiment: BIACORE (SPR); human 5T4 antigen immobilized on CM5 chip
T2 sequence: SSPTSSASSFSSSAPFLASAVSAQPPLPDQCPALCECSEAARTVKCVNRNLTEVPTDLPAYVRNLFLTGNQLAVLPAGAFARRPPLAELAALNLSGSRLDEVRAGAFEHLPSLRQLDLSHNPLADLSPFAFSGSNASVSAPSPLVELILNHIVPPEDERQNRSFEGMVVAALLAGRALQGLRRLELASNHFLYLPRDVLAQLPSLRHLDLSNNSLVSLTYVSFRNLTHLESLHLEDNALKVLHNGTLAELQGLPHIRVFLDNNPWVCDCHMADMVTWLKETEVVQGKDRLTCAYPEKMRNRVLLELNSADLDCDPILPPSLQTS
Method: (§1) To assess the binding specificity and affinity of the A1, A2, and A3 antibodies, BIACORE® analysis was performed using human 5T4 antigen immobilized on a CM5 chip. BIACORE® technology utilizes changes in the refractive index at the surface layer upon binding of the antibody to the 5T4 antigen immobilized on the layer. Binding is detected by surface plasmon resonance (SPR) of laser light refracting from the surface. Analysis of the signal kinetics on rate and off rate allows discrimination between non-specific and specific interactions. The H8 anti-5T4 antibody was used as a control. H8 is a hybridoma-generated monoclonal mouse IgG1 antibody described in PCT International Publication No. WO 98/55607 and in Forsberg et al. (1997) J. Biol. Chem. 272(19):[…].

human 5T4 antigen [4] = biological target: T2, human 5T4 antigen; experiment: BIACORE; human 5T4 chip saturated with first antibody H8 (competitor)
Method: Epitope mapping of the H8, A1, A2, and A3 antibodies was also performed using BIACORE® using a CM5 chip with bound human 5T4 antigen. The chip was saturated with H8, A1, A2, or A3 antibody, and a first response was measured. The chip was then saturated with a second antibody from among the H8, A1, A2, and A3 antibodies, and a second response was measured. For multiple experiments, the chip was regenerated by dissociation of the bound antibodies in 10 mM glycine, pH 1.5, followed by a buffer wash. The percentages shown are the response units measured upon binding by a second antibody directly to the CM5 chip divided by the response units measured upon binding of the second antibody to a CM5 chip saturated with a first antibody.

human 5T4 antigen [5] = biological target: T2, human 5T4 antigen; experiment: BIACORE (SPR); human 5T4 antigen immobilized on CM5 chip; remark: listed apart in the source
Method: as §1
To assess the binding specificity and affinity of the chimeric and humanized H8, A1, A2, and A3 antibodies, BIACORE® analysis was performed using human 5T4 antigen immobilized on a CM5 chip. See Example 2.

[6] = biological target: chimpanzee 5T4 ectodomain Fc (chimpanzee; human, UniProt P01857 99-330 = IgG part); experiment: ELISA; 5T4 ectodomain/Fc fusion protein from transiently transfected COS-1 cells; given as ED50
Method: (§2) To assay binding of anti-5T4 antibodies, 5T4 ectodomain/Fc fusion proteins were transiently transfected into COS-1 cells, and ELISA assays were performed. Non-relevant human IgG4 and IgG1 antibodies were used as controls.

human 5T4 ectodomain Fc = biological target: T3, human 5T4 ectodomain Fc (human, UniProt Q13641 32-355); experiment: as above
T3 construct: also called human 5T4 ectodomain Fc fusion protein; Human 5T4 Ectodomain/Fc Fusion; not shown: Fc constant regions from human IgG1
T3 sequence: T2 sequence
Method: as §2

[7] = biological target: T4, cynomologous monkey 5T4 ectodomain Fc (cynomologous monkey; human, UniProt Q4R8Y9 32-355); experiment: as above
T4 construct: not shown: Fc constant regions from human IgG1
T4 chain: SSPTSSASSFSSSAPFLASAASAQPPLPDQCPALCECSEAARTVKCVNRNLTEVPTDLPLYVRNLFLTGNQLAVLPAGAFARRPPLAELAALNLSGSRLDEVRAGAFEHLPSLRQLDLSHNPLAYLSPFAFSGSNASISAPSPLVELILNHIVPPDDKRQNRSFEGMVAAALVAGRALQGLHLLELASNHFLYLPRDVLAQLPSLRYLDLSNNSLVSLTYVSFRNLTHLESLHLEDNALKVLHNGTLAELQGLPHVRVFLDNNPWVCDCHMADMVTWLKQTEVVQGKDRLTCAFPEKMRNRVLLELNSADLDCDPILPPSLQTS
Method: as §2

human 5T4 antigen [8] = biological target: T2, human 5T4 antigen; experiment: BIACORE; human 5T4 chip saturated with first antibody humanized H8 (competitor); 19 s after injection of second antibody
human 5T4 antigen [9] = biological target: T2, human 5T4 antigen; experiment: BIACORE; human 5T4 chip saturated with first antibody humanized H8 (competitor); 75 s after injection of second antibody
human 5T4 antigen [10] = biological target: T2, human 5T4 antigen; experiment: BIACORE; human 5T4 chip saturated with first antibody humanized H8 (competitor); 150 s after injection of second antibody
human 5T4 antigen [11] = biological target: T2, human 5T4 antigen; experiment: BIACORE; human 5T4 chip saturated with first antibody humanized H8 (competitor); 300 s after injection of second antibody
human 5T4 antigen [12] = biological target: T2, human 5T4 antigen; experiment: BIACORE; human 5T4 chip saturated with first antibody humanized H8 (competitor); 600 s after injection of second antibody
human 5T4 antigen [13] = biological target: T2, human 5T4 antigen; experiment: BIACORE; human 5T4 chip saturated with first antibody humanized H8 (competitor); 37.5 s after injection of second antibody
human 5T4 antigen [14] = biological target: T2, human 5T4 antigen; experiment: ELISA; inhibition of biotinylated chimeric A1 antibody binding to human 5T4

Molecule: Control (secondary Ab) (antibody)
Mean Cellular Flouresence [1]: 4

B1: murine anti-5T4 antibody A1 (antibody, V domains shown)
VH: QIQLVQSGPELKKPGETVKISCKASGYTFTNFGMNWVKQGPGEGLKWMGWINTNTGEPRYAEEFKGRCAFSLETTASTAYLQINNLKNEDTATYFCARDWDGAYFFDYWGQGTTLTVSS
VL: SIVMTQTPKFLLVSAGDRVTITCKASQSVSNDVAWYQQKPGQSPKLLINFATNRYTGVPNRFTGSGYGTDFTFTISTVQAEDLALYFCQQDYSSPWTFGGGTKLEIK
Mean Cellular Flouresence [2]: 18
Ka (human 5T4 antigen [3]): 1.6e+09 M⁻¹
Kd (human 5T4 antigen [3]): 0.64 nM
koff (human 5T4 antigen [3]): 0.00013 s⁻¹
kon (human 5T4 antigen [3]): 200000 M⁻¹ s⁻¹
percentage response of second antibody following saturation with first antibody (human 5T4 antigen [4]): 109%

B2: chimeric A1 antibody bearing C67F mutation (antibody, V domains shown)
VH: B1 VH with C68F
VL: B1 VL
notes: also called Chimeric A1 + C67F; ChiA1+C67F
Ka (human 5T4 antigen [5]): 2.6e+09 M⁻¹
Kd (human 5T4 antigen [5]): 0.38 nM
koff (human 5T4 antigen [5]): 6.3e-05 s⁻¹
kon (human 5T4 antigen [5]): 170000 M⁻¹ s⁻¹

B3: chimeric A3 antibody (antibody, human IgG4, V domains shown)
VH: EVQLVESGGGLVQPKGSLKLSCAASGFTFNTYAMNWVRQAPGKGLEWVARIRSKSNNYATYYADSVKDRFTISRDDSQSMLYLQMNNLKTEDTAMYCCVRQWDYDVRAMNYWGQGTSVTVSS
VL: DIVMTQSHIFMSTSVGDRVSITCKASQDVDTAVAWYQQKPGQSPKLLIYWASTRLTGVPDRFTGSGSGTDFTLTISNVQSEDLADYFCQQYSSYPYTFGGGTKLEIK
notes: also called ChiA3; ChiA3 γ4
Ka (human 5T4 antigen [5]): ~5.4e+09 M⁻¹
Kd (human 5T4 antigen [5]): ≤ 0.18 nM
koff (human 5T4 antigen [5]): ≤ 1e-05 s⁻¹
kon (human 5T4 antigen [5]): ~54000 M⁻¹ s⁻¹
EC50 [6]: 0.2 nM
EC50 (human 5T4 ectodomain Fc): 0.2 nM
EC50 [7]: 0.23 nM
percentage of second antibody bound following saturation with first antibody (human 5T4 antigen [8]): 46.2%
percentage of second antibody bound following saturation with first antibody (human 5T4 antigen [9]): 58.4%
percentage of second antibody bound following saturation with first antibody (human 5T4 antigen [10]): 67.5%
percentage of second antibody bound following saturation with first antibody (human 5T4 antigen [11]): 76.2%
percentage of second antibody bound following saturation with first antibody (human 5T4 antigen [12]): 83.6%
percentage of second antibody bound following saturation with first antibody (human 5T4 antigen [13]): 51.2%

B4: murine anti-5T4 antibody A3 (antibody, V domains shown)
VH: B3 VH
VL: B3 VL
notes: also called muA3
Mean Cellular Flouresence [2]: 27
Ka (human 5T4 antigen [3]): 4.6e+08 M⁻¹
Kd (human 5T4 antigen [3]): 2.2 nM
koff (human 5T4 antigen [3]): 5.2e-05 s⁻¹
kon (human 5T4 antigen [3]): 24000 M⁻¹ s⁻¹
percentage response of second antibody following saturation with first antibody (human 5T4 antigen [4]): 73%

B5: chimeric A3 antibody bearing C91Y mutation (antibody, V domains shown)
VH: B3 VH with C97Y
VL: B3 VL
notes: also called Chimeric A3 + C91Y; ChiA3+C91Y
Ka (human 5T4 antigen [5]): 1.7e+09 M⁻¹
Kd (human 5T4 antigen [5]): 0.59 nM
koff (human 5T4 antigen [5]): 1.6e-05 s⁻¹
kon (human 5T4 antigen [5]): 27000 M⁻¹ s⁻¹

B9: huA1 VH v2.0 + huA1 VL v2.4 (antibody, V domains shown)
VH: EVQLVESGGGLVQPGGSLRLSCAASGYTFTNFGMNWVRQAPGKGLEWVAWINTNTGEPRYAEEFKGRFTISRDNAKNSLYLQMNSLRAEDTAVYYCARDWDGAYFFDYWGQGTLVTVSS
VL: DIQMTQSPSSLSASVGDRVTITCKASQSVSNDVAWYQQKPGKAPKLLIYFATNRYTGVPSRFSGSGYGTDFTLTISSLQPEDFATYYCQQDYSSPWTFGQGTKVEIK
IC50 (human 5T4 antigen [14]): 16 nM

Next, values leading:

Mean Cellular Flouresence [1]: 4
Molecule: Control (murine IgG) (antibody)

Mean Cellular Flouresence [2]: 7
Ka (human 5T4 antigen [3]): 6.5e+07 M⁻¹
Kd (human 5T4 antigen [3]): 15 nM
koff (human 5T4 antigen [3]): 0.00087 s⁻¹
kon (human 5T4 antigen [3]): 56000 M⁻¹ s⁻¹
percentage response of second antibody following saturation with first antibody (human 5T4 antigen [4]): 99%
B6: murine anti-5T4 antibody A2 (antibody, V domains shown)
VH: QVQLQQSRPELVKPGASVKMSCKASGYTFTDYVISWVKQRTGQGLEWIGEIYPGSNSIYYNEKFKGRATLTADKSSSTAYMQLSSLTSEDSAVYFCAMGGNYGFDYWGQGTTLTVSS
VL: QIVLTQSPAIMSASLGERVTLTCTASSSVNSNYLHWYQQKPGSSPKLWIYSTSNLASGVPARFSGSGSGTSYSLTISSMEAEDAATYYCHQYHRSPLTFGAGTKLELK
notes: also called muA2

IC50 (human 5T4 antigen [14]): 28 nM
B7: huA1 VH v2.0 + huA1 VL v1.1 (antibody, V domains shown)
VH: B9 VH
VL: DIVMTQSPDSLAVSLGERATINCKASQSVSNDVAWYQQKPGQPPKLLIYFATNRYTGVPDRFSGSGYGTDFTLTISSLQAEDVAVYYCQQDYSSPWTFGQGTKVEIK
notes: also called humanized A1 VH version 2.0 + humanized A1 VL version 1.1

IC50 (human 5T4 antigen [14]): 27 nM
B8: huA1 VH v2.0 + huA1 VL v3.1 (antibody, V domains shown)
VH: B9 VH
VL: EIVMTQSPATLSLSPGERATLSCKASQSVSNDVAWYQQKPGQAPRLLIYFATNRYTGIPARFSGSGYGTDFTLTISSLQPEDFAVYYCQQDYSSPWTFGQGTKVEIK
